Test results published in IntAct's records for PubMed 23468526.

B1: Moesin/ezrin/radixin homolog 1 (Drosophila melanogaster (Fruit fly)), P46150 (parent)
chain: MSPKALNVRVTTMDAELEFAIQSTTTGKQLFDQVVKTIGLREVWFFGLQYTDSKGDSTWIKLYKKVMNQDVKKENPLQFRFRAKFYPEDVAEELIQDITLRLFYLQVKNAILTDEIYCPPETSVLLASYAVQARHGDHNKTTHTAGFLANDRLLPQRVIDQHKMSKDEWEQSIMTWWQEHRSMLREDAMMEYLKIAQDLEMYGVNYFEIRNKKGTDLWLGVDALGLNIYEQDDRLTPKIGFPWSEIRNISFSEKKFIIKPIDKKAPDFMFFAPRVRINKRILALCMGNHELYMRRRKPDTIDVQQMKAQAREEKNAKQQEREKLQLALAARERAEKKQQEYEDRLKQMQEDMERSQRDLLEAQDMIRRLEEQLKQLQAAKDELELRQKELQAMLQRLEEAKNMEAVEKLKLEEEIMAKQMEVQRIQDEVNAKDEETKRLQDEVEDARRKQVIAAEAAAALLAASTTPQHHHVAEDENENEEELTNGDAGGDVSRDLDTDEHIKDPIEDRRTLAERNERLHDQLKALKQDLAQSRDETKETANDKIHRENVRQGRDKYKTLREIRKGNTKRRVDQFENM
partner: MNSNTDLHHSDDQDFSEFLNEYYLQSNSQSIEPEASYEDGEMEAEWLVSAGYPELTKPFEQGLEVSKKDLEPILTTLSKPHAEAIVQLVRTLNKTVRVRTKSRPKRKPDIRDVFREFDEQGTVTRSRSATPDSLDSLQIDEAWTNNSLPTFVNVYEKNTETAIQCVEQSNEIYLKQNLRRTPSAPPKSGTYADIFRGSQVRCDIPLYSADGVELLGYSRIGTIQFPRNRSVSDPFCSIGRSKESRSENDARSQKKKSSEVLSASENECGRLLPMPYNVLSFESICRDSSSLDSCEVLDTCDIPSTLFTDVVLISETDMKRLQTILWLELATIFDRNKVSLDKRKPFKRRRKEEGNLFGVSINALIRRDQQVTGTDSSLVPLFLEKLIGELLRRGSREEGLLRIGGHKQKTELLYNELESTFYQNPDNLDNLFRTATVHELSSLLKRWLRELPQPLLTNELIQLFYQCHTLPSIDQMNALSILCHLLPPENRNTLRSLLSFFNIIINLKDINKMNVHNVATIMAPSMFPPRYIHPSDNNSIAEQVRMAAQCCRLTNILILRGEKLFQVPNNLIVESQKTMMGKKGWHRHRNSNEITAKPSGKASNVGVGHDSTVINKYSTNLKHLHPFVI

Variants of: B1
Settings: with conu_drome conu

| effect of a mutation on the interaction | Variant |
| --- | --- |
| increasing interaction strength | T559D |
